Biological target: BVDV E2 protein with 6×his tag, purified from 293F cells (bovine viral diarrhea virus (BVDV), UniProt P19711 693-1066)
Test: SPR

B1: bovine CD46 protein (MedChemExpress) (receptor)
chain: CDDPPRFVSMKPQGTLKPSYSPGEQIVYECHLGFQPVTPGQVLALVCQDNNTWSSLQEGCKKRRCPTLADPTNGQVILVNGSTEFGSEVHYVCNNGYYLLGTNISYCEVSSGTGVNWSDNPPTCEKILCQPPPEIQNGKYTNSHKDVFEYNEVVTYSCDPSNGPDEYSLVGESKLTCIGNGEWSSQPPQCKVVKCVYPAIEHGTIVSGFGPKYYYKATVVLKCNEGFNLYGNSVVVCGENSTWEPELPKCIKGHPPRPTDASPPNGAEG
For B1, the Kd was 75.1 nM.

Reference: PMC11633101 (2024)
